Tests used:
[1] = biological target: SAP54 (purified, secreted part) (Aster Yellows-Witches' Broom phytoplasma (Candidatus Phytoplasma asteris strain AY-WB)); assay: dynamic light scattering
[2] = biological target: the molecule itself; assay: dynamic light scattering

In the case of “SAP54 (purified, secreted part) (natural protein)”, the stoichiometry N [1] is reported as 2.

B1: K-domain of SEP3 (SEP3^75-178) (domain or fragment, A. thaliana, UniProt O22456-1 75-178, looked up)
chain: YGAPEPNVPSREALAVELSSQQEYLKLKERYDALQRTQRNLLGEDLGPLSTKELESLERQLDSSLKQIRALRTQFMLDQLNDLQSKERMLTETNKTLRLRLADG
In the case of B1, the “stoichiometry N” value [2] is reported as 4.

Reference: publication doi:10.1101/772699 (bioRxiv, 2019)
